Measured values taken from the RNAGym collection of RNA variant scans (doi:10.7554/elife.80360).

B1: HDV Ribozyme (parent)
chain: GGCCGGCAUGGUCCCAGCCUCCUCGCUGGCGCCGGCUGGGCAACAUUCCGAGGGGACCGUCCCCUCGGUAAUGGCGAAUGGGACCCA

Variants of: B1
Experiment: self-cleavage, relative activity (ratio to wild type); higher = more cleavage; co-transcriptional

First: G34U C85G
Second: G28C G38C
The self-cleavage of the first is higher: 0.128 for the first, 0.0426 for the second.

Going from A45G G52U to G31A U69G, the self-cleavage falls from 0.731 to 0.284.

Going from G55A G73U to U27G C48A, the self-cleavage rises from 0.457 to 0.72.

Compared with C14A A51C, C15A A45U is lower in self-cleavage: 0.959 for the first, 0.475 for the second.

Going from U9G G81A to U9G G10A, the self-cleavage rises from 0.8 to 1.25.

First: G28U G81C
Second: G2A G76U
The self-cleavage of the first is lower: 0.0282 for the first, 0.332 for the second.

Going from G2C C22A to C57G G80C, the self-cleavage rises from 0.114 to 0.125.

Going from G38U A56G to G5A G35U, the self-cleavage falls from 0.193 to 0.0396.

First: G29C C66G
Second: A42G A71G
The self-cleavage of the first is lower: 0 for the first, 0.554 for the second.

Compared with C41A G55C, G29U G53A is lower in self-cleavage: 0.831 for the first, 0.0432 for the second.

Compared with C62U A78C, G6A C13U is higher in self-cleavage: 0.0936 for the first, 0.145 for the second.

First: A16G C57A
Second: C58A A71G
The self-cleavage of the first is higher: 1.18 for the first, 0.897 for the second.

Going from C14G C22U to C33U G35C, the self-cleavage falls from 0.306 to 0.237.

Compared with G6C C14U, C57A C86G is higher in self-cleavage: 0.453 for the first, 0.89 for the second.

Going from U23A C24U to C41U G53A, the self-cleavage rises from 0.199 to 1.12.

Compared with C15G U23C, G25A C86A is lower in self-cleavage: 0.332 for the first, 0.104 for the second.

Compared with C18A G67C, C19U G34C is lower in self-cleavage: 0.123 for the first, 0.0346 for the second.

Going from C13A U23A to G38C C64U, the self-cleavage rises from 0.138 to 0.369.

First: G50U G73C
Second: G59A G80U
The self-cleavage of the first is higher: 0.268 for the first, 0.179 for the second.

First: C4G G82A
Second: G2C C49U
The self-cleavage of the first is lower: 0.0674 for the first, 0.132 for the second.

Going from G10A C49G to C32U G67C, the self-cleavage rises from 0.46 to 0.997.

Going from G76C A87U to G39U C58U, the self-cleavage falls from 1.1 to 0.716.

Compared with G67U A87G, A8U G34C is lower in self-cleavage: 0.91 for the first, 0 for the second.

Going from C18A G55C to U23A A78C, the self-cleavage rises from 0.133 to 0.219.

Going from G5A G52C to A56U G80C, the self-cleavage falls from 0.253 to 0.22.

Going from U27A G80A to A16C C21G, the self-cleavage falls from 0.499 to 0.119.

Compared with A45U U69C, C24U G39C is lower in self-cleavage: 0.959 for the first, 0.0302 for the second.

First: G25A A42U
Second: G17A U60A
The self-cleavage of the first is lower: 0 for the first, 0.787 for the second.

First: G5A C18G
Second: G11C G38A
The self-cleavage of the first is lower: 0 for the first, 0.0519 for the second.

First: G35C C85G
Second: A16G U27A
The self-cleavage of the first is lower: 0.0923 for the first, 0.703 for the second.

First: G54C U72A
Second: G35C G82A
The self-cleavage of the first is higher: 0.702 for the first, 0.147 for the second.

Compared with G5U C66G, C18U G53C is higher in self-cleavage: 0.554 for the first, 0.607 for the second.

Going from G53A A70C to G2U G59C, the self-cleavage falls from 1.06 to 0.0323.

Going from G31C A70U to G34U U37G, the self-cleavage falls from 0.128 to 0.0519.

First: C3U G55C
Second: C3U G6A
The self-cleavage of the first is higher: 0.867 for the first, 0.245 for the second.

Going from G10A C30G to A16G A70G, the self-cleavage rises from 0.0777 to 1.33.

Going from C4U C22U to U60G G76C, the self-cleavage rises from 0.259 to 1.09.

Going from C49A C61A to C49A C86G, the self-cleavage rises from 0.759 to 0.906.

Compared with U23C U27G, C14U A77G is higher in self-cleavage: 1.06 for the first, 1.31 for the second.

Compared with G2C G82C, G2A C84G is higher in self-cleavage: 0.0272 for the first, 0.0391 for the second.

Going from G35C G52C to G31C G81A, the self-cleavage falls from 0.128 to 0.0791.

Compared with G31A G67A, C4G A42C is lower in self-cleavage: 0.44 for the first, 0 for the second.

First: C63G C64U
Second: G31C C44G
The self-cleavage of the first is higher: 0.753 for the first, 0.135 for the second.

First: G2A C85U
Second: G11A C48A
The self-cleavage of the first is lower: 0.115 for the first, 0.506 for the second.

Compared with U72A C75U, C7A U9G is higher in self-cleavage: 0.199 for the first, 0.396 for the second.

First: C30A G35A
Second: A42C C85G
The self-cleavage of the first is lower: 0.244 for the first, 0.469 for the second.

Going from C4A C63G to G5C A87C, the self-cleavage rises from 0.0755 to 0.268.

First: G29U C61A
Second: C13A C33G
The self-cleavage of the first is lower: 0.089 for the first, 0.175 for the second.

Going from G2U G81C to G11A C57G, the self-cleavage rises from 0.0779 to 0.432.

First: U23G C24A
Second: G52C G68C
The self-cleavage of the first is higher: 0.706 for the first, 0.369 for the second.

First: G17A C36A
Second: C15U G73C
The self-cleavage of the first is lower: 0.138 for the first, 0.429 for the second.

Going from U47G C57A to C24U C41A, the self-cleavage falls from 1.22 to 0.608.

Going from U20A G50C to G6C U72A, the self-cleavage falls from 0.131 to 0.0755.

Compared with U27C G73U, C61A U69G is higher in self-cleavage: 0.0449 for the first, 1.03 for the second.

Going from C4A C22G to C49A G80A, the self-cleavage rises from 0.102 to 0.479.

Compared with C24A A87G, C18G U46C is lower in self-cleavage: 0.7 for the first, 0 for the second.

Going from G55C G80U to G34U U46G, the self-cleavage falls from 0.216 to 0.196.

First: G35U G73C
Second: C41A G82C
The self-cleavage of the first is lower: 0.185 for the first, 0.289 for the second.

Going from C33A A70U to G29A G40C, the self-cleavage falls from 0.458 to 0.0656.

First: A45U G67A
Second: C49U U60G
The self-cleavage of the first is lower: 0.717 for the first, 0.939 for the second.

Going from A8U A83C to G17C U46G, the self-cleavage rises from 0 to 0.0923.

Compared with G11C G53C, G28U C61U is lower in self-cleavage: 0.291 for the first, 0.193 for the second.

Going from C66G G68C to U20C A51U, the self-cleavage falls from 0.554 to 0.185.

Going from C64U G68U to U65G U79C, the self-cleavage falls from 0.607 to 0.19.

Compared with U27C U60A, G31C G73C is lower in self-cleavage: 1.09 for the first, 0.155 for the second.

Compared with U27C C36G, C22U A42G is lower in self-cleavage: 0.185 for the first, 0.0755 for the second.

First: C32U
Second: G17A G67C
The self-cleavage of the first is higher: 0.881 for the first, 0.659 for the second.

Compared with U20G A83C, C75A G81C is lower in self-cleavage: 0.158 for the first, 0.157 for the second.

First: C24U G34U
Second: G35C A78C
The self-cleavage of the first is higher: 0.17 for the first, 0.0519 for the second.

First: G28C G50A
Second: C62U A83C
The self-cleavage of the first is lower: 0.151 for the first, 0.359 for the second.

First: C19U G54U
Second: G17C G80A
The self-cleavage of the first is higher: 0.174 for the first, 0.0252 for the second.

Compared with G53A G73A, U27A C62G is higher in self-cleavage: 0.44 for the first, 0.929 for the second.

Going from C57G U65G to U46C C48A, the self-cleavage rises from 0.85 to 0.89.

Going from A70G G74A to C7A G52U, the self-cleavage rises from 0.453 to 0.462.

Compared with G55C G73U, U23A G40U is higher in self-cleavage: 0.277 for the first, 0.769 for the second.

Going from U47C C84A to C64U A70U, the self-cleavage rises from 0.554 to 1.01.

First: A45U C84U
Second: U20A C41G
The self-cleavage of the first is higher: 0.623 for the first, 0.135 for the second.

Going from C48U G81U to A16U C32A, the self-cleavage falls from 0.327 to 0.177.

Compared with C18A U69A, G59A C64A is higher in self-cleavage: 0.19 for the first, 0.862 for the second.

Going from C19G G34A to C13G C86U, the self-cleavage falls from 0.248 to 0.151.

Going from G10U A83C to U60C U69A, the self-cleavage rises from 0.181 to 0.802.

Going from C49A to C19A G35U, the self-cleavage falls from 0.965 to 0.115.

Compared with U27C C64A, C4U G68A is lower in self-cleavage: 0.705 for the first, 0.604 for the second.

C14G U79G showed a self-cleavage of 0.
